Assay results from US9816117B2, “Methods, reagents and cells for biosynthesizing compounds” (INVISTA North America S.á r.l., priority 2014, dated 2017).

Columns and labels:
Type in all cases: biochemical
[1] = ω-transaminase enzyme activity assay, reverse direction (6-aminohexanoate to adipate semialdehyde); details: cell free extract; 10 mM 6-aminohexanoate, 10 mM pyruvate; 25° C., 24 h; against empty vector control (FIG. 17)
Protocol: (§1) A nucleotide sequence encoding a His-tag was added to the genes from Chromobacterium violaceum, Pseudomonas aeruginosa, Pseudomonas syringae, Rhodobacter sphaeroides, and Vibrio fluvialis encoding the ω-transaminases of SEQ ID NOs: 7, 8, 9, 10 and 12, respectively (see FIG. 9) such that N-terminal HIS tagged w-transaminases could be produced. Each of the resulting modified genes was cloned into a pET21a expression vector under control of the T7 promoter and each expression vector was transformed into a BL21[DE3] E. coli host. The resulting recombinant E. coli strains were cultivated at 37° C. in a 250 mL shake flask culture containing 50 mL LB media and antibiotic selection pressure, with shaking at 230 rpm. Each culture was induced overnight at 16° C. using 1 mM IPTG.
(§2) The pellet from each induced shake flask culture was harvested via centrifugation. Each pellet was resuspended and lysed via sonication. The cell debris was separated from the supernatant via centrifugation and the cell free extract was used immediately in enzyme activity assays.
Enzyme activity assays in the reverse direction (i.e., 6-aminohexanoate to adipate semialdehyde) were performed in a buffer composed of a final concentration of 50 mM HEPES buffer (pH=7.5), 10 mM 6-aminohexanoate, 10 mM pyruvate and 100 μM pyridoxyl 5′ phosphate. Each enzyme activity assay reaction was initiated by adding cell free extract of the ω-transaminase gene product or the empty vector control to the assay buffer containing the 6-aminohexanoate and incubated at 25° C. for 24 h, with shaking at 250 rpm. The formation of L-alanine from pyruvate was quantified via RP-HPLC.

[2] = ω-transaminase enzyme activity assay, forward direction (adipate semialdehyde to 6-aminohexanoate); details: cell free extract; 10 mM adipate semialdehyde, 10 mM L-alanine; 25° C., 4 h; against empty vector control (FIG. 18)
Protocol: as §1, §2
Enzyme activity in the forward direction (i.e., adipate semialdehyde to 6-aminohexanoate) was confirmed for the transaminases of SEQ ID NO 7, SEQ ID NO 8, SEQ ID NO 9, SEQ ID NO 10 and SEQ ID NO 12. Enzyme activity assays were performed in a buffer composed of a final concentration of 50 mM HEPES buffer (pH=7.5), 10 mM adipate semialdehyde, 10 mM L-alanine and 100 μM pyridoxyl 5′ phosphate. Each enzyme activity assay reaction was initiated by adding a cell free extract of the ω-transaminase gene product or the empty vector control to the assay buffer containing the adipate semialdehyde and incubated at 25° C. for 4 h, with shaking at 250 rpm. The formation of pyruvate was quantified via RP-HPLC.

[3] = carboxylate reductase enzyme activity assay (adipate to adipate semialdehyde); details: purified enzyme enhanced by sfp gene product; 2 mM adipate; room temperature, 20 min; against empty vector control (FIG. 12)
Protocol: A sequence encoding a HIS-tag was added to the genes from Segniliparus rugosus and Segniliparus rotundus that encode the carboxylate reductases of SEQ ID NOs: 4 and 6, respectively (see FIG. 9), such that N-terminal HIS tagged carboxylate reductases could be produced. Each of the modified genes was cloned into a pET Duet expression vector along with a sfp gene encoding a HIS-tagged phosphopantetheine transferase from Bacillus subtilis, both under the T7 promoter. Each expression vector was transformed into a BL21[DE3] E. coli host and the resulting recombinant E. coli strains were cultivated at 37° C. in a 250 mL shake flask culture containing 50 mL LB media and antibiotic selection pressure, with shaking at 230 rpm. Each culture was induced overnight at 37° C. using an auto-induction media.
The pellet from each induced shake flask culture was harvested via centrifugation. Each pellet was resuspended and lysed via sonication, and the cell debris was separated from the supernatant via centrifugation. […]
Enzyme activity assays (i.e., from adipate to adipate semialdehyde) were performed in triplicate in a buffer composed of a final concentration of 50 mM HEPES buffer (pH=7.5), 2 mM adipate, 10 mM MgCl2, 1 mM ATP and 1 mM NADPH. […] The consumption of NADPH was monitored by absorbance at 340 nm.

Molecule | ω-transaminase activity: acceptance of 6-aminohexanoate as substrate (formation of L-alanine from pyruvate, RP-HPLC) [1] | ω-transaminase activity: acceptance of adipate semialdehyde as substrate (formation of pyruvate, RP-HPLC) [2] | carboxylate reductase activity: acceptance of adipate as substrate (consumption of NADPH, absorbance at 340 nm) [3]
SEQ ID NO 10: Rhodobacter sphaeroides ω-transaminase (Genbank Accession No. ABA81135.1) | accepted 6-aminohexanote as substrate | accepted adipate semialdehyde as substrate | –
SEQ ID NO 8: Pseudomonas aeruginosa ω-transaminase (Genbank Accession No. AAG08191.1) (protein, listed as Pseudomonas aeruginosa) MNARLHATSPLGDADLVRADQAHYMHGYHVFDDHRVNGSLNIAAGDGAYIYDTAGNRYLDAVGGMWCTNIGLGREEMARTVAEQTRLLAYSNPFCDMANPRAIELCRKLAELAPGDLDHVFLTTGGSTAVDTAIRLMHYYQNCRGKRAKKHVITRINAYHGSTFLGMSLGGKSADRPAEFDFLDERIHHLACPYYYRAPEGLGEAEFLDGLVDEFERKILELGADRVGAFISEPVFGSGGVIVPPAGYHRRMWELCQRYDVLYISDEVVTSFGRLGHFFASQAVFGVQPDIILTAKGLTSGYQPLGACIFSRRIWEVIAEPDKGRCFSHGFTYSGHPVACAAALKNIEIIEREGLLAHADEVGRYFEERLQSLRDLPIVGDVRGMRFMACVEFVADKASKALFPESLNIGEWVHLRAQKRGLLVRPIVHLNVMSPPLILTREQVDTVVRVLRESIEETVEDLVRAGHR | – | accepted adipate semialdehyde as substrate | –
SEQ ID NO 9: Pseudomonas syringae ω-transaminase (Genbank Accession No. AAY39893.1) (protein, listed as Pseudomonas syringae) MSANNPQTLEWQALSSEHHLAPFSDYKQLKEKGPRIITRAEGVYLWDSEGNKILDGMSGLWCVAIGYGREELADAASKQMRELPYYNLFFQTAHPPVLELAKAISDIAPEGMNHVFFTGSGSEGNDTMLRMVRHYWALKGQPNKKTIISRVNGYHGSTVAGASLGGMTYMHEQGDLPIPGVVHIPQPYWFGEGGDMTPDEFGIWAAEQLEKKILELGVENVGAFIAEPIQGAGGVIVPPDSYWPKIKEILSRYDILFAADEVICGFGRTSEWFGSDFYGLRPDMMTIAKGLTSGYVPMGGLIVRDEIVAVLNEGGDFNHGFTYSGHPVAAAVALENIRILREEKIVERVRSETAPYLQKRLRELSDHPLVGEVRGVGLLGAIELVKDKTTRERYTDKGAGMICRTFCFDNGLIMRAVGDTMIIAPPLVISFAQIDELVEKARTCLDLTLAVLQG | accepted 6-aminohexanote as substrate | accepted adipate semialdehyde as substrate | –
SEQ ID NO 4: Segniliparus rugosus carboxylate reductase (Genbank Accession No. EFV11917.1) (protein, listed as Segniliparus rugosus) MGDGEERAKRFFQRIGELSATDPQFAAAAPDPAVVEAVSDPSLSFTRYLDTLMRGYAERPALAHRVGAGYETISYGELWARVGAIAAAWQADGLAPGDFVATVGFTSPDYVAVDLAAARSGLVSVPLQAGASLAQLVGILEETEPKVLAASASSLEGAVACALAAPSVQRLVVFDLRGPDASESAADERRGALADAEEQLARAGRAVVVETLADLAARGEALPEAPLFEPAEGEDPLALLIYTSGSTGAPKGAMYSQRLVSQLWGRTPVVPGMPNISLHYMPLSHSYGRAVLAGALSAGGTAHFTANSDLSTLFEDIALARPTFLALVPRVCEMLFQESQRGQDVAELRERVLGGRLLVAVCGSAPLSPEMRAFMEEVLGFPLLDGYGSTEALGVMRNGIIQRPPVIDYKLVDVPELGYRTTDKPYPRGELCIRSTSLISGYYKRPEITAEVFDAQGYYKTGDVMAEIAPDHLVYVDRSKNVLKLSQGEFVAVAKLEAAYGTSPYVKQIFVYGNSERSFLLAVVVPNAEVLGARDQEEAKPLIAASLQKIAKEAGLQSYEVPRDFLIETEPFTTQNGLLSEVGKLLRPKLKARYGEALEARYDEIAHGQADELRALRDGAGQRPVVETVVRAAVAISGSEGAEVGPEANFADLGGDSLSALSLANLLHDVFEVEVPVRIIIGPTASLAGIAKHIEAERAGASAPTAASVHGAGATRIRASELTLEKFLPEDLLAAAKGLPAADQVRTVLLTGANGWLGRFLALEQLERLARSGQDGGKLICLVRGKDAAAARRRIEETLGTDPALAARFAELAEGRLEVVPGDVGEPKFGLDDAAWDRLAEEVDVIVHPAALVNHVLPYHQLFGPNVVGTAEIIRLAITAKRKPVTYLSTVAVAAGVEPSSFEEDGDIRAVVPERPLGDGYANGYGNSKWAGEVLLREAHELVGLPVAVFRSDMILAHTRYTGQLNVPDQFTRLVLSLLATGIAPKSFYQQGAAGERQRAHYDGIPVDFTAEAITTLGAEPSWFDGGAGFRSFDVFNPHHDGVGLDEFVDWLIEAGHPISRIDDHKEWFARFETAVRGLPEAQRQHSLLPLLRAYSFPHPPVDGSVYPTGKFQGAVKAAQVGSDHDVPHLGKALIVKYADDLKALGLL | – | – | accepted adipate as substrate
SEQ ID NO 12: Vibrio Fluvialis ω-transaminase (Genbank Accession No. AEA39183.1) (protein, Vibrio Fluvialis) MNKPQSWEARAETYSLYGFTDMPSLHQRGTVVVTHGEGPYIVDVNGRRYLDANSGLWNMVAGFDHKGLIDAAKAQYERFPGYHAFFGRMSDQTVMLSEKLVEVSPFDSGRVFYTNSGSEANDTMVKMLWFLHAAEGKPQKRKILTRWNAYHGVTAVSASMTGKPYNSVFGLPLPGFVHLTCPHYWRYGEEGETEEQFVARLARELEETIQREGADTIAGFFAEPVMGAGGVIPPAKGYFQAILPILRKYDIPVISDEVICGFGRTGNTWGCVTYDFTPDAIISSKNLTAGFFPMGAVILGPELSKRLETAIEAIEEFPHGFTASGHPVGCAIALKAIDVVMNEGLAENVRRLAPRFEERLKHIAERPNIGEYRGIGFMWALEAVKDKASKTPFDGNLSVSERIANTCTDLGLICRPLGQSVVLCPPFILTEAQMDEMFDKLEKALDKVFAEVA | accepted 6-aminohexanote as substrate | accepted adipate semialdehyde as substrate | –
SEQ ID NO 7: Chromobacterium violaceum ω-transaminase (Genbank Accession No. AAQ59697.1) (protein, listed as Chromobacterium violaceum) MQKQRTTSQWRELDAAHHLHPFTDTASLNQAGARVMTRGEGVYLWDSEGNKIIDGMAGLWCVNVGYGRKDFAEAARRQMEELPFYNTFFKTTHPAVVELSSLLAEVTPAGFDRVFYTNSGSESVDTMIRMVRRYWDVQGKPEKKTLIGRWNGYHGSTIGGASLGGMKYMHEQGDLPIPGMAHIEQPWWYKHGKDMTPDEFGVVAARWLEEKILEIGADKVAAFVGEPIQGAGGVIVPPATYWPEIERICRKYDVLLVADEVICGFGRTGEWFGHQHFGFQPDLFTAAKGLSSGYLPIGAVFVGKRVAEGLIAGGDFNHGFTYSGHPVCAAVAHANVAALRDEGIVQRVKDDIGPYMQKRWRETFSRFEHVDDVRGVGMVQAFTLVKNKAKRELFPDFGEIGTLCRDIFFRNNLIMRACGDHIVSAPPLVMTRAEVDEMLAVAERCLEEFEQTLKARGLA | accepted 6-aminohexanote as substrate | accepted adipate semialdehyde as substrate | –
